Experimental data published in patent publication US9217036.

Target: full-length mouse PrP, cellular prion protein PrP^c (mouse) (UniProt P04925)
Sequence (P04925 23-230 limits assumed): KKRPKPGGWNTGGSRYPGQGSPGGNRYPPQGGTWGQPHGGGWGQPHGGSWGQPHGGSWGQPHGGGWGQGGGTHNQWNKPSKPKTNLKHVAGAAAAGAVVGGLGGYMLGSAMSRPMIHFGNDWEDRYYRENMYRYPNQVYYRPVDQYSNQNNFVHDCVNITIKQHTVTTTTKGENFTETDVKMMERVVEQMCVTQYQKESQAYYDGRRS

6D11 anti-PrP mouse monoclonal antibody
IC50: 1 nM
